Reference: PMC10501182

Target: Protein A (ProA)-tagged INTAC (human) (UniProt Q8N201)
Assay: pull-down; in vitro; ProA-tagged INTAC incubated with the indicated purified subcomplexes and immobilised onto IgG resin, washed, SDS-PAGE and Coomassie blue staining; some lanes with DSIF, NELF, a DNA-RNA scaffold or a PP2A inhibitor added

stoichiometry N: 1
Substance: human RNA polymerase II overexpressed in Expi293F cells (from UniProt P24928 1-1970; P30876 1-1174; P19387 1-275; P52435 1-117) (complex)
